Experimental data taken from patent US20220041723A1 (BIOINVENT INTERNATIONAL, published 2022).

What was measured:
[1] = molecular target: T1, recombinant human CTLA-4-Fc protein (R&D Systems) (human, UniProt P16410 37-162); assay: ELISA, CTLA-4-Fc coated at 1 pmol/well, IgG titrated
T1 construct: also called rhCTLA-4-Fc; human CTLA-4 protein; not shown: Fc part of the bought fusion protein, not described

[2] = molecular target: T2, human CTLA-4 expressed on cells (293T cells stably transfected with human CTLA-4); in vitro-activated human … (human, UniProt P16410 36-223); assay: flow cytometry on hCTLA-4-transfected 293T cells
T2 construct: whole, on cells; also called hCTLA-4

[3] = molecular target: T3, recombinant human CD28-Fc protein (R&D Systems) (human, UniProt P10747 19-152); assay: ELISA, CD28-Fc coated at 1 pmol/well
T3 construct: also called human CD28 protein; not shown: Fc part of the bought fusion protein, not described

[4] = molecular target: T1, recombinant human CTLA-4-Fc protein …; assay: ELISA, CTLA-4-Fc coated, IgG titrated
[5] = molecular target: T1, recombinant human CTLA-4-Fc protein …; assay: competitive flow cytometry: soluble rhCTLA-4-Fc blocks staining of activated human CD4+ T cells
[6] = molecular target: T4, recombinant mouse CTLA-4-Fc protein (R&D Systems) (mouse, UniProt P09793 36-162); assay: ELISA, mouse CTLA-4-Fc coated at 0.3 pmol/well, IgG titrated
T4 construct: not shown: Fc part of the bought fusion protein, not described

[7] = molecular target: T5, recombinant mouse CD28-Fc protein (R&D Systems) (mouse, UniProt P31041 20-149); assay: ELISA, mouse CD28-Fc coated at 0.3 pmol/well
T5 construct: not shown: Fc part of the bought fusion protein, not described

[8] = molecular target: T6, recombinant mouse CTLA-4-Fc protein (Sino Biological Inc.) (mouse, UniProt P09793 36-162); assay: ligand blocking ELISA on coated mouse CTLA-4-Fc
T6 construct: also called murine CTLA-4; not shown: Fc part of the bought fusion protein, not described

| Binder | binding result [1] | binding result [2] | binding result [3] | binding result [4] | binding result [5] | binding result [6] | binding result [7] | binding result [8] |
| --- | --- | --- | --- | --- | --- | --- | --- | --- |
| 2-F09 (antibody, V domains shown) VH: EVQLLESGGGLVQPGGSLRLSCAASGFTFKAYSMSWIRQAPGKGLEWVSGISNTGGSTDFADSVKGRFTISRDNSKNTLYLQMNSLRAEDTAMYYCARLGYSGYDDRGMDVWGQGTLVTVSS VL: QSVLTQPPSASGTPGQRVTISCSGSSSNIGSNYVYWYQQLPGTAPKLLIYGNSNRPSGVPDRFSGSKSGTSASLAISGLRSEDEADYYCQSYDSSLSGPVVFGGGTKLTVLG | binds | binds |  |  |  |  |  |  |
| 2-C06 (antibody, V domains shown, also called 2-006) VH: EVQLLESGGGLVQPGGSLRLSCAASGFTFSSYAMSWVRQAPGKGLEWVSGISGSGGYIHYADSVKGRFTISRDNSKNTLYLQMNSLRAEDTAVYYCATYSSGLHDAFDIWGQGTLVTVSS VL: QSVLTQPPSASGTPGQRVTISCTGSSSNIGAGYDVHWYQQLPGTAPKLLIYDNNKRPSGVPDRFSGSKSGTSASLAISGLRSEDEADYYCAAWDDSLNGWVFGGGTKLTVLG |  | binds | no binding (tested: titrated 66 nM to 0.3 pM) | binds |  |  |  |  |
| 4-E03 (antibody, human IgG1, lambda, V domains shown, also called 4-E03 mAb; 4-E03 monoclonal antibody) VH: EVQLLESGGGLVQPGGSLRLSCAASGFTFSDYYMSWVRQAPGKGLEWVSGISWSSRDKGYADSVKGRFTISRDNSKNTLYLQMNSLRAEDTAVYYCTTDLARYWGQGTLVTVSS VL: QSVLTQPPSASGTPGQRVTISCTGSSSNIGAGYDVHWYQQLPGTAPKLLIYGNDNRPSGVPDRFSGSKSGTSASLAISGLRSEDEADYYCAVWDDSLNGVVFGGGTKLTVLG |  | binds | no binding (tested: titrated 66 nM to 0.3 pM) | binds |  |  |  |  |
| 5-B07 (antibody, V domains shown, also called 5-B07 (human IgG format)) VH: EVQLLESGGGLVQPGGSLRLSCAASGFTFSSYSMNWVRQAPGKGLEWVSAISGSGGSTYYADSVKGRFTISRDNSKNTLYLQMNSLRAEDTAVYYCARDRVEMNQWLADWGQGTLVTVSS VL: not shown |  | binds | no binding (tested: titrated 66 nM to 0.3 pM) |  | binds | binds | no binding (tested: titrated 66 nM to 0.3 pM) |  |
| m5-B07 (antibody clone 5-B07 in mIgG2a format) (antibody, V domains shown, also called 5-B07 in mouse IgG2a format; m5-B07 mAb) VH: EVQLLESGGGLVQPGGSLRLSCAASGFTFSSYSMNWVRQAPGKGLEWVSAISGSGGSTYYADSVKGRFTISRDNSKNTLYLQMNSLRAEDTAVYYCARDRVEMNQWLADWGQGTLVTVSS VL: not shown |  |  |  |  |  |  |  | binds |
